Source: patent publication US20110117113A1, “IMMUNOGLOBULIN SINGLE VARIABLE DOMAIN DIRECTED AGAINST HUMAN CXCR4 AND OTHER CELL ASSOCIATED PROTEINS AND METHODS TO GENERATE THEM” (priority 2009, published 2011)
Where a chain is given by its changes, count along the chain named.

How the values were obtained:
Assay in all cases: immunofluorescence on HEK-293T expressing the clone, normalised to wild type
[1] = target: CXCR4 mutation library clone 3622 (E277G) (human, UniProt P61073 1-352)
[2] = target: T1, CXCR4 mutation library clone 414 (C218R, E179V, S351T) (human, UniProt P61073 1-352)
T1 chain: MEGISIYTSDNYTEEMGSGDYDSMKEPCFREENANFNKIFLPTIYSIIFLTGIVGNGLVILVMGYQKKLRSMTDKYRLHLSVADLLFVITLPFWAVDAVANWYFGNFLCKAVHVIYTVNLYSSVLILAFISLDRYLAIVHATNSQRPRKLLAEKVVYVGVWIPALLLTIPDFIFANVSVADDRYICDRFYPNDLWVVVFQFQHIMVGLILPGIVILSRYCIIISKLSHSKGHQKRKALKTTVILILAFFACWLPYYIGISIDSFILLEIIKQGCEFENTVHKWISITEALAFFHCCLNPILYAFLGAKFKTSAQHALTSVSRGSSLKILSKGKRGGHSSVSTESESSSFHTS

[3] = target: CXCR4 mutation library clone 3630 (W195R) (human, UniProt P61073 1-352)
[4] = target: CXCR4 mutation library clone 1129 (F189V) (human, UniProt P61073 1-352)
[5] = target: T2, CXCR4 mutation library clone 913 (F189S, K308R) (human, UniProt P61073 1-352)
T2 chain: T1 chain with V179E, F189S, R218C, K308R, T351S

[6] = target: T3, CXCR4 mutation library clone 185 (E277A, I245V, N298S) (human, UniProt P61073 1-352)
T3 chain: T1 chain with V179E, R218C, I245V, E277A, N298S, T351S

[7] = target: T4, CXCR4 mutation library clone 709 (P163L, S178I) (human, UniProt P61073 1-352)
T4 chain: T1 chain with P163L, S178I, V179E, R218C, T351S

[8] = target: CXCR4 mutation library clone 2184 (P191T) (human, UniProt P61073 1-352)
[9] = target: CXCR4 mutation library clone 914 (N192K) (human, UniProt P61073 1-352)
[10] = target: T5, CXCR4 mutation library clone 1057 (K230E, S178R) (human, UniProt P61073 1-352)
T5 chain: T1 chain with S178R, V179E, R218C, K230E, T351S

B1: Nanobody 238D4 (VHH)
VHH: EVQLMESGGGLVQAGGSLRLSCAASGRTFNNYAMGWFRRAPGKEREFVAAITRSGVRSGVSAIYGDSVKDRFTISRDNAKNTLYLQMNSLKPEDTAVYTCAASAIGSGALRRFEYDYSGQGTQVTVSS
% immunofluorescence [1]: 52.5% | % immunofluorescence [2]: 8% | % immunofluorescence [3]: 58.8% | % immunofluorescence [4]: 5.2% | % immunofluorescence [5]: -16.9% | % immunofluorescence [6]: 69.3% | % immunofluorescence [7]: 30% | % immunofluorescence [8]: 124% | % immunofluorescence [9]: 55.8% | % immunofluorescence [10]: 11.4%
